From patent US7897732B2, “Antibodies to heparin-binding growth factor (HBGF) polypeptides” (Childrens Hospital Research Foundation, priority 1997, dated 2011) come the findings set out here.

Assay [1] in a line: Heparin affinity chromatography (NaCl required for elution). It counts as binding. How it is done:
Fractions that contained HBGF activity (fractions 16-19 collected after the cation exchange chromatography and heparin affinity chromatography) were pooled, diluted, and subjected to a second cycle of heparin affinity FPLC using a TSK heparin 5PW column. To perform the second heparin affinity purification step, biologically active HBGF fractions containing the 0.8 M NaCl eluate from the EconoPac heparin purification step were pooled, diluted 3-fold with 20 mM Tris-HCl (pH 7.4), and clarified by passage through a 0.2-μm filter. The sample was applied at 2 ml/min to a TSK heparin 5PW column (0.8×7.5 cm; TosoHaas, Philadelphia, Pa.), that was washed and eluted as described above, except that CHAPS was omitted from the buffers and fractions of 0.5 ml were collected. […] HBGF polypeptide was again eluted by 0.8 M NaCl (fractions 31-36), but was resolved as two peaks of mitogenic activity which had distinct heparin binding properties. The activity peaks were termed HGBF-0.8-P1 for fractions 31-34 and HGBF-0.8-P2 for fractions 35 and 36. To assess the relative mitogenic capability of HBGFs with IGF-1, EGF, bFGF, and PDGF-AB, DNA synthesis assays on 3T3 cells were performed (Table 4). Biologically active fractions containing the 0.3-0.6 M NaCl eluate from the Bio-Rex column were pooled, diluted 3-fold with 20 mM Tris-HCL (pH 7.4) containing 0.1% CHAPS, passed through a 0.45-μm membrane filter, placed in a siliconized polypropylene vessel, and applied with a peristaltic pump to an EconoPac heparin column (0.7×3.6 cm; Bio-Rad) at 2 ml/min. The heparin column was then washed with 50 ml of 20 mM Tris-HCl buffer, 0.2 M NaCl, 0.1% CHAPS and developed at 1 ml/min with a 40 ml gradient of 0.1-2.0 M NaCl in 20 mM Tris-HCl, 0.1% CHAPS (pH 7.4) using a fast protein liquid chromatography (FPLC) system (Pharmacia Biotech Inc.). Fractions (1 ml) were collected into siliconized tubes during NaCl gradient elution and tested for 3T3 cell mitogenic activity.

Another assay has as its system Balb/c 3T3 fibroblasts. Kind of assay: DNA synthesis ([3H]thymidine incorporation) assay in confluent quiescent Balb/c 3T3 cells. Type of assay: cell-based. How it is done: To assess the relative mitogenic capability of HBGFs with IGF-1, EGF, bFGF, and PDGF-AB, DNA synthesis assays on 3T3 cells were performed (Table 4). Biologically active fractions containing the 0.3-0.6 M NaCl eluate from the Bio-Rex column were pooled, diluted 3-fold with 20 mM Tris-HCL (pH 7.4) containing 0.1% CHAPS, passed through a 0.45-μm membrane filter, placed in a siliconized polypropylene vessel, and applied with a peristaltic pump to an EconoPac heparin column (0.7×3.6 cm; Bio-Rad) at 2 ml/min. The heparin column was then washed with 50 ml of 20 mM Tris-HCl buffer, 0.2 M NaCl, 0.1% CHAPS and developed at 1 ml/min with a 40 ml gradient of 0.1-2.0 M NaCl in 20 mM Tris-HCl, 0.1% CHAPS (pH 7.4) using a fast protein liquid chromatography (FPLC) system (Pharmacia Biotech Inc.). Fractions (1 ml) were collected into siliconized tubes during NaCl gradient elution and tested for 3T3 cell mitogenic activity. Column fractions were tested for their ability to stimulate DNA synthesis as measured by [^3H]thymidine incorporation into the DNA of confluent quiescent Balb/c 3T3 cells grown in 200 μl of Dulbecco's modified Eagle's medium, 10% bovine calf serum in 96-well culture plates as described (Kim, G. Y., et al., Biol. Reprod. 52, 561-571 (1995)). Dose-response curves to purified growth factors from ULF were established by assaying each dose in triplicate, with data computed as mean±S.D. Statistical significance of the effects of 1-100 μg/ml porcine heparin (Sigma) on growth factor activity was determined by Students' t test.

[2] abbreviates: preparation after C8HPLC (step 1), bioactivity diminished due to acid exposure.

B1: HBGF-0.8-P2: 10-kDa heparin-binding growth factor; truncated porcine CTGF starting at residue 248 (SEQ ID NO: 2 N-terminus) (protein)
chain: ENIKKGKKCIRTPKISKPVKFELSGCTSVKTYRAKFCGVCTDGRCCTPHRTTTLPVEFKCPDGEVMKKSMMFIKTCACHYNCPGDNDIFESLYYRKMYGDMA
As to B1, the “NaCl required for elution from a heparin affinity column” value in assay [1] is reported as 0.8 M. The “ED50: concentration of HBGF-0.8 preparation required to give 50% maximal DNA synthesis” value was found to be 0.25 µg/mL in the assay on Balb/c 3T3 fibroblasts (setting [2]) and 0.417 µg/mL with Balb/c 3T3 fibroblasts (preparation after TSK-Hep step).

B2: HBGF-0.8-P1: 10-kDa heparin-binding growth factor; N-terminally truncated porcine CTGF starting at residue 247 (SEQ ID NO: 1 N-terminus) (protein)
chain: EENIKKGKKCIRTPKISKPVKFELSGCTSVKTYRAKFCGVCTDGRCCTPHRTTTLPVEFKCPDGEVMKKSMMFIKTCACHYNCPGDNDIFESLYYRKMYGDMA
Consider B2, for which the “NaCl required for elution from a heparin affinity column” value in assay [1] came out at 0.8 M. For the same molecule, the “Heparin affinity as compared with HBGF-0.8-P2” value in assay [1] (TSK heparin 5PW column) is “lower heparin affinity”. In addition, the “ED50: concentration of HBGF-0.8 preparation required to give 50% maximal DNA synthesis” value in the assay with Balb/c 3T3 fibroblasts (setting [2]) was found to be 0.25 µg/mL; in the assay on Balb/c 3T3 fibroblasts (preparation after C8HPLC, step 2, bioactivity diminished due to acid exposure), 0.025 µg/mL; in the assay with Balb/c 3T3 fibroblasts (preparation after TSK-Hep step), 2.23 µg/mL.
